# Source: paper PMC8639777 (Nature, 2021)
# Where a chain is given by its changes, count along the chain named. Names may count otherwise.
# B1: human ALKAL2 ALKAL domain (ALKAL2-AD), residues 71-152, wild type (ligand, UniProt Q6UX46 71-152, looked up)
# chain: AEAAGLGPSPEQRVEIVPRDLRMKDKFLKHLTGPLYFSPKCSKHFHRLYHNTRDCTIPAYYKRCARLLTRLAVSPVCMEDKQ
# B2: human ALKAL2-AD (71-152) R123E (ligand, UniProt Q6UX46 71-152, looked up)
# chain: B1 chain with R53E
# B3: human ALKAL2-AD (71-152) R140E (ligand, UniProt Q6UX46 71-152, looked up)
# chain: B1 chain with R70E
# Key:
# Assay in all cases: BLI
# [1] = target: human ALK GRD (678-1030) E974R (human, UniProt Q9UM73 678-1030, E974R)
# [2] = target: human ALK GRD (678-1030) Y966R (human, UniProt Q9UM73 678-1030, Y966R)
# [3] = target: human ALK glycine-rich domain (GRD), residues 678-1030, wild type (human, UniProt Q9UM73 678-1030)
# [4] = target: human ALK GRD (678-1030) E978R (human, UniProt Q9UM73 678-1030, E978R)
# Chain of human ALK GRD (678-1030) E978R (Q9UM73 678-1030 E978R): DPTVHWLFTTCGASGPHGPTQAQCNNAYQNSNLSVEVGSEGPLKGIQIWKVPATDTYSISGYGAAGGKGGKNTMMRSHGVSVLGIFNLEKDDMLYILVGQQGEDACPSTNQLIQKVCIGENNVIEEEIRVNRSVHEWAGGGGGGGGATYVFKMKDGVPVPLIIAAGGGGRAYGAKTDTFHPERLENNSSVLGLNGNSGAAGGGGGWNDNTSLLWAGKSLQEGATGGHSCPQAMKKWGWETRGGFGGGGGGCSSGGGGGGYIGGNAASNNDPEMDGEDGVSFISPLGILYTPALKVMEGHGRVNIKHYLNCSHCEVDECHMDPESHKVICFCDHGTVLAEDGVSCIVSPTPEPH
# Chain of human ALK glycine-rich domain (GRD), residues 678-1030, wild type (Q9UM73 678-1030): as the sequence (Q9UM73 678-1030 E978R) above, with R301E counted along it
# Chain of human ALK GRD (678-1030) E974R (Q9UM73 678-1030 E974R): as the sequence (Q9UM73 678-1030 E978R) above, with E297R, R301E counted along it
# Chain of human ALK GRD (678-1030) Y966R (Q9UM73 678-1030 Y966R): as the sequence (Q9UM73 678-1030 E978R) above, with Y289R, R301E counted along it
binder,measurement,setting,value
B1,Kd,[1],1410 nM
same,Kd,[2],5.12 µM
same,Kd,[3],329 nM
same,Kd,[4],6.11 µM
B2,Kd,[3],391 nM
B3,Kd,[3],2950 nM
